# Source: publication PMC7235295, “Cytoplasmic TDP43 Binds microRNAs: New Disease Targets in Amyotrophic Lateral Sclerosis”
# Molecular target: TDP43 (natively folded full-length, ab224788) (UniProt Q13148 1-414)
# Experiment: ELISA (immobilized miRNA titration, EC50); 5 nM TDP43; AC/TG nonspecific oligo 1 ug/ml; EMSA: 14 mM Tris pH 8.0, 35 mM KCl, 14 mM NaCl, 1.4 mM MgCl2, 14% glycerol, 0.7 mM DTT, 30 min RT, 5 nM RNA, gel at 4 C; ELISA: 20 mM HEPES pH 7.5, 150 mM NaCl, 1.5 mM MgCl2, 0.05% Tween 20, 0.5 mM DTT, 1 ug/ml AC/TG oligo, 0.2% BSA, 12 h 4 C
# Conditions: protein: commercial; label: 3'-biotin; single strand
# Chain of TDP43 (natively folded full-length, ab224788) (Q13148 whole entry): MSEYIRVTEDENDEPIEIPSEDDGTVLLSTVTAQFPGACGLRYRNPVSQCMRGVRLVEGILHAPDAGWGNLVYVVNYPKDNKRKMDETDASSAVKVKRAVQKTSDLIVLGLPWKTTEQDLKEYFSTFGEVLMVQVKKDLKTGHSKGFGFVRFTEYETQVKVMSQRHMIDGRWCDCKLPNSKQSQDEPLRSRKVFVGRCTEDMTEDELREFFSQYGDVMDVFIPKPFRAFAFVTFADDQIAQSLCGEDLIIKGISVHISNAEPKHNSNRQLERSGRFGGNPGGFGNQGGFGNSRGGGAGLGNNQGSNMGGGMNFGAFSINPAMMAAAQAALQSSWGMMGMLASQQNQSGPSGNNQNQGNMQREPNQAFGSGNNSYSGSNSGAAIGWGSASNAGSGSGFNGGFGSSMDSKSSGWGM
row,Binder,apparent K (half saturation) [nM]
1,UGAGUGUGUGUGUGUGAGUGUGU (ssRNA) [miR-574-5p (ELISA)],2.84
2,AAUGGCGCCACUAGGGUUGUG (ssRNA) [miR-652-3p],6.41
3,UUCCCUUUGUCAUCCUAUGCCU (ssRNA) [miR-204-5p],37.7
